Reference: patent US20190309087A1
Each block holds one molecule with its values, some of them ahead of it.

Experiments:
[1] = target: recombinant mouse CD34 (Sino Biological) (mouse) (UniProt Q64314); experiment: ELISA on coated recombinant mouse CD34, LNPs pre-incubated with Triton X-100, anti-Rat HRP detection
[2] = target: recombinant mouse CD34 (Sino Biological) (mouse) (UniProt Q64314); experiment: ELISA on coated recombinant mouse CD34
[3] = target: Rat IgG2a (RIg) immobilized on the Biacore chip (Rattus norvegicus (Rat)) (UniProt P20760); experiment: SPR, Biacore T-200, RIg immobilized on CM5 chip, mASSET 0 to 30 nM
[4] = target: anti-CD34 RIg (clone mec14.7) held by ASSET on TsiLNPs; experiment: share of added RIg held on ASSET LNPs, gel quantification after purification
[5] = target: Rat IgG2a (RIg), BioXcell clone FIB504; experiment: ELISA, plates coated with 5 µg/ml RIg, ASSET in serial dilutions, anti-His detection
[6] = target: Rat IgG2a (RIg), BioXcell clone FIB504; experiment: ELISA on coated RIg of ASSET LNPs after dialysis, LNPs pre-incubated with 0.2% Triton X-100

Sequence of UniProt Q64314 (Q64314 35-287 limits assumed): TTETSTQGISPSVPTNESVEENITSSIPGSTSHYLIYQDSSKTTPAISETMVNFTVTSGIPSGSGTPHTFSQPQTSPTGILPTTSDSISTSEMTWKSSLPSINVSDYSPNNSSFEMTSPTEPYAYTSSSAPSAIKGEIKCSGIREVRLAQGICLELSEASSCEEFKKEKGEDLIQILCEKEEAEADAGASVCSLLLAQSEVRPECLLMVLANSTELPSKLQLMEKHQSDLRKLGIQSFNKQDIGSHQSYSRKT
Sequence of UniProt P20760 (P20760 whole entry): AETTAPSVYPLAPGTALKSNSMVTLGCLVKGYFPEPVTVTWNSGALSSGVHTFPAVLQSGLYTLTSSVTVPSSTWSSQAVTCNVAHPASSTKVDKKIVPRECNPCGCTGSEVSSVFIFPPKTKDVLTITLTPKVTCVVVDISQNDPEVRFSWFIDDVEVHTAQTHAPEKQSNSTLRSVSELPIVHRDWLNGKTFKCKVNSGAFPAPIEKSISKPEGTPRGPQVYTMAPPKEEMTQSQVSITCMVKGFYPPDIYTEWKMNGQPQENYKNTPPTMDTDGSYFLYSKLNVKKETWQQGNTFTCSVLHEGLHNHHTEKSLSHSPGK

Molecule: anti-CD34 RIg (clone mec14.7) held by ASSET on TsiLNPs (antibody)
Kd [1]: 0.24 nM

B2: ASSET (Anchored Secondary scFv Enabling Targeting) (scFv, part only; not given: mCherry fusion and junctions, part only)
scFv, part: CDQSSSEVQLLQSGPELVKPGASVKIPCKASGYTFTDYNMDWVKQSHEKSLEWIGYINPYSGDTIYNHKFKDKATLTVYKSSNIAYMELRSLTSEDTAVYYCARGGYDYGDHWGQGTTLTVSSGSAGGGGSGGGGSGGGGSDIKMTQSPSSMYASLGERVTITCKASQDINSYLSWFQQKPGKSPKTLIYRANRLVDGVPSRFSGSGSGQDYSLTISSLEYEDMGIYYCLQDDEFPRTFGGGTKLEIKHHHHHH
modifications: N-terminal cysteine of the CDQSSS NlpA motif is lipid-acylated (bacterial lipidation)
IgG incorporation [4]: 98.3%
Kd [5]: 10 nM
functionality maintained after incorporation into LNPs [6]: 95.8%

Now from value to molecule:

Kd [1]: 1.08 nM
fold loss in activity against RIg bound to the LNP by ASSET [2]: 4.5 fold
Molecule: anti-CD34 RIg (clone mec14.7) chemically conjugated to LNPs (ccTsiLNPs) (antibody)

Kd [3]: 22.7 nM
B1: mutated (m)ASSET, fusion protein containing a mutated NlpA motif (scFv, not shown: small tags and cut ends)
scFv: EVQLLQSGPELVKPGASVKIPCKASGYTFTDYNMDWVKQSHEKSLEWIGYINPYSGDTIYNHKFKDKATLTVYKSSNIAYMELRSLTSEDTAVYYCARGGYDYGDHWGQGTTLTVSSGSAGGGGSGGGGSGGGGSDIKMTQSPSSMYASLGERVTITCKASQDINSYLSWFQQKPGKSPKTLIYRANRLVDGVPSRFSGSGSGQDYSLTISSLEYEDMGIYYCLQDDEFPRTFGGGTKLEIK
